Results on 1 substance are retold here after publication PMC6755124.

In this data set the test system is C6orf203 mature form (Homo sapiens). As to the kind of experiment: EMSA. Conditions: 100 nM RNA, 0-2.56 uM protein; EMSA buffer, salt, pH and temperature not given (performed as previously described, ref 19); 100 nM fluorescein-labeled RNA; protein purified in 25 mM Tris-HCl …. On the technique in general: Mobility shift assays separate free from complexed probe on a gel.

Take mt-tRNAPro: the Kd (usually the concentration at which binding is half-saturated) worked out at 290 nM.
